Experimental data: the nanobody polyreactivity screen of Harvey et al. (2022)

Assay: yeast display, Sf9 membrane polyspecificity reagent, FACS + sequencing; frameworks hold sequencing errors
In short: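 After 36–48 hours of galactose induction, yeast (Saccharomyces cerevisiae BJ5465) displaying a synthetic nanobody library were stained at 4 °C for 1 hour with 10% biotinylated, detergent-solubilized Sf9 membrane reagent. Streptavidin microbeads enriched the stained cells before FACS sorting into low and high (top ~1%) gates on anti-HA and streptavidin fluorescence. Each clone's polyreactivity label reflects its gate of origin.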

Row | Sequence | polyreactivity (PSR sort gate)
1 | QVQLVESGGGLVQAGGSLRLSCAASGITFRWYAMGWSRQAPGKERELVAAIDGGGSTYYADSVKGRFTISRDNAKNTVYLQMNSMKPEDTAVYYCAADYGRRYHTPYGWDYYYWGQGTQVTVSS | high polyreactivity
2 | QVQLQESGGGLVQACGSQRLSCAASGSISEGQDMGRYRRAPRKEREFVAGIAPGATTYYADSVKGRFTISRDNAKNTVYLQMNSLKPEDTAVYYCAARSVTETDHDYWGQGTQVTVSS | low polyreactivity
3 | QVQLVESGGGLVQAGGSLRLSCAACGLTITFYAMGWYRQAPGKERELVAAISRSGGSTYYADSVKGRFTISRDNAKNTVYLQMNSLKPEVTAVYYCAVVGGYYEFDYEGDYWGQGTQVTVSS | low polyreactivity
4 | QVQLVESGGGLVQAGGSLRLSCAASGRTFYVNTMGWYRQAPGKEREFVAAISYSGGRTYYADSVKGRFTISRDNAKNTVYLQMNSLKPEDTAVYYCATRINSWSAYTKYDYWGQGTQVTVSS | high polyreactivity
5 | QVQLVESGGGLVQAGGSLRLSCAASGRSFRDYGMGWYRQAPGKERELVAVITWGGGSTYYADSVKGRFTISRDNAKNTVYLQMNSLKPEDTAVYYCAKEYHYYYWGQGTQVTVSS | low polyreactivity
6 | QVQLVESGGGLVQAGGSLRLSCAASGRTFKKYAMGWYRQAPGKERELVAAISWSGGTTYYADSVKGRFTISRDNAKNTVYLQMNSLKPEDTAVYYCAARVSRTGHGYYYFWGQGTQVTVSS | high polyreactivity
7 | QVQLVESGGGLVQAGGSRRLSCAASGRIFDTYTMGWYRQAPGKERELVAAITTGGSTYYADSVKGRFTISRDNAMNTVYLQMNSLKPEDTAVYYCAARYRSIIRYYYWGQGTQVTVSS | high polyreactivity
8 | QVQLVESGGGLVQAGGSLRLSCAASGLTFRVYAMVWYRQAPGKERELVAAISKRGGSTYYADSVKGRFTISRDNAKKTVYLQMNSLKPEENAVYSCAADSDNSVRLAGSGGNYCGQGTQVTVSS | high polyreactivity
9 | QVQLVESGGGLVQAGGSLRLSCAASGSTLGRNAMGWYRQAPGKERELVAAISSTGGSTSYADSVKGRFTISRDNAKNTVYLQMNSLKPEDTAVYYCAKRFSPRYYYWGQGTQVTVSS | high polyreactivity
10 | QVQLVESGGGVVQAGGSLRLSCAASGRIISYNAMGWYRQAPGKERELVAAISWGGGSTYYADSVKGRFTISRDNAKNTVYLQMNSLKPEDTAVSYCAKGWYRIKRNDYWGQGTQVTVSS | low polyreactivity
11 | QVQLVESGGGLVQAGGSLRLSCAASGSTLRYYAMGWYRQAPGKEREMVADITSSGNTNYADSVKGRFTISRDNAKNTVYLQMNSLKPEDTAVYYCAGDSANYQWYLSWQKDDYWGQGTQVTVSS | low polyreactivity
12 | QVQLVESGGGLVQAGGSLLLSCAASGSIFGWYAMGWYRQAPGKERELVAAISSSGDSTYYADSVKGRFTISRDNAKNTVYLQMNSLKPEDTAVYYCAAEYWPSSPSAPGFDYDHWGQGTQVTVSS | low polyreactivity
13 | QVQLVESGGGLVQAGGSLRLSCAASGSIFAQNAIGWYRQAPGKERELVAAIDLNGGSTYYADSVKGRFTISRDNAKNTVYLQLNSQKPEDTAVYYCAVYYGHSSVIRSSPEYDSWGQGTQVTVSS | low polyreactivity
14 | QVQLVESGGGLVQAGGSLRLSCAASGSISRQYALGWYRQAPGTERELVAAITVRGGSTYYADSVKGRFTISRDNAKNTVYLQMNSLKPEDTAVYYCAKYTRYSASYDYWGQGTQVTVSS | high polyreactivity
15 | QVQLVESGGGLVQAGGSLRLSCAASGSTFRRNAMGWYRQPPGKERELVAAISGSGSTYYADSVKGRFTISRDHAKNTVYLQLNSLKPEDTAVYYCAKDVTDPTSRSDRSGDDYWGQGTQVTVSS | low polyreactivity
16 | QVQLVESGGGLVQAGGSLRLSCAASGNIFWRNAMGWYRQAPGKERELVAAISRRAVSTYYADSVKGRFTISRDNAKNTVYLQMNSLKPEDTAVYYCAARLGGENDYWGQGTQVTVSS | high polyreactivity
17 | QVQLVESGGGLVQAGGSLRLSCAASGSIFTYYAMGWYRQAPGKEREFVAAISRRGGSTYYADSVKGRFTISRDNAKNTVYLQMNSLKPEDTAVYFCAADRWTRTLVKVIGRYYYCGQGTQVTVSS | high polyreactivity
18 | QVQLVEAGGGLVQAGGSLRLSCAASGRIFYSNAMGWCRQAPGKERELVAAITWRGGSTYYADSVKGRFTISRDNAKNTVYLQMNSLKPEDTAVYYCATDGYDDTHYYYLGQGTQVTVSS | low polyreactivity
19 | QLQLVESGGGLVQAGGSLRLSCAASGFTFRCNAMGWYRQAPGKEMELVAGITSGGSTNYADSVKGRFTISRDNAKNTVYLQMNSLKPEDTAVYYCNAAWYRWKQRYDYWGQGTQVTVSS | low polyreactivity
20 | QVQLVESGGGLVQAGGSLRLSCAASGSIFRRYAMGWYRKAPGKEREMVAGISRTGSRTYYADSVKGRFTISRDNAKNTVYLQMNSLKPEDTAVYYCAALGPGRSGFFRYDYWGQGTQVTVSS | high polyreactivity
21 | QVQLVESGGGLVQAGGSLRLSCAASGSILGPYAMGWYRQAPGKERELVAAISWGGGSTYYADSVKGRFTISRDNAKNTVYLQMNSLKPEDTAVYYCAADFGYYDYDYWGQGTQVTVSS | low polyreactivity
22 | QVQLVESGGGLVQAGGSLRLSCAASGRTFTSYVMGWYIQAPGKERELVAAITRGGRSYYADSVKGRFTISRDNAKKTVYLQMNSLTPEDTAVYYCGARYSVSYNYWGQGTQVTVSS | high polyreactivity

Row | Sequence | polyreactivity (PSR sort gate)
23 | QVQLVESGGGLVQAGGSLRLSCAASGSILNSYAMGWYRQAPGKERELVASITVIGGSTYYADSVKGRFSISRDNAKNTDYLQMNSLKPEDTAVYYCNKEWIIADAYYGVHDYYYWGQGTQVTVSS | low polyreactivity
24 | QVQLVESGGGLVHAGGSLRLSCAASGRTFATYAMGWYRQAPGKERELVAAITSGGSTYYADSVKGRFTISRDNAKNTVYLQMNSLKPEDTAVYYCAADLSTYRRGFDYWGQGTHVTVSS | high polyreactivity
25 | QVQLVESGRGLVQAGGSLRLSCAASGLTFSKYAMGWYRQAPGKERELVATISRSGGSTYYADSVKGRFTISRDNAKNTVYVQMNSLKPEDTAVYYCAAGSILYGATGEYIYWGQGTQVTVSS | high polyreactivity
26 | QVQLVESGGGLVQAGGSLRLSCAASGSIFHRNAMGWYRQAPGKEREFVAAISWRGGSTYYADSVKGRFTISRDNAKNTVYLQMNSLKPEDTAVYYCAADPVGYYWSRRSEFYYWGQGTQVTVSS | high polyreactivity
27 | QVQLVESGGGLVQAGGSLRLSCAASGSIFAVYVMGWYRQAPGKERDFVAAITYSGTSTNYADSVKGRFTISRDNAKNTVYLQMNSLKPEDTAVFYCAADVRSSNGHYTLYDYWGQGTQVTVSS | high polyreactivity
28 | QVQLQESGGGLVQAGGSLRLSCAASGTIFTARFMGWYRQAPGKERELVATITDGGNTNHADSVKGRFTISRDNAKNTVYLQMNSLKPEDAAVYFCAAGEVDNDTLLYWGQGSQVTVSS | low polyreactivity
29 | QVQLVESGGGLVQAGGSLRLSCAASGTMGWYRQAPGKERELVAAISSSDRTSYADSVKGRFTISRDNAKNTVYLQMNSLKPEDTAVYYCNASTVFAWRTTTLKLFYTAHDYWGQGTQVTVSS | low polyreactivity
30 | QVQLVESGGGLVQAGGSLRLSCAASGSIFHNYDMGLYRQAPGKEREMVADISRGGDTNYADSVKGRFTISRDNAKNTVYLQLNSLKPEDTAVYYCNATYWILDSPWWRETFAYWGQGTQVTVSS | low polyreactivity
31 | QVQLVESGGGLVQAGGSLRLSCAASGIIFDSYAMGWYRQAPGKERELVAAITSRGGRTYYADSVKGRFTISRDNAKNTVSLQMNSLKPEDTAVYYCAARAKYDRRTDGTSGYDYWGQGTQVTVSS | low polyreactivity
32 | QVQLEESGGGLVQAGGSLRLSCAASGFIFYRYAMGWYRQAPGKERELVAALTTGGDRTYYADSVKGRFTISRDNAKNTVYLQMNSLKPEDPAVYYCATLWSYYYATIYLDGYDYWGQGTQVTVSS | high polyreactivity
33 | QVHLVESGGGLVQAGGSLRLSCAASGRTFRIYAMGWYRPAPGKERELVAAISRSSTSTYYADSVKGRFTISRDNAKNTVYLQMNSLKPEDTAVYYCAAVVTVQYSQPYDHWGQGTQVTVSS | high polyreactivity
34 | QVQLVESGGGLVQAGGSLRLSCAASGFTFPSYAMGWYRQAPGKERELVAAISQRGGSTYYADSVKGRFTISRDNAKNTVYLQMNSLKPEDTAVYYCAALAPRTGRPTYGYWGQGTQVTVSS | low polyreactivity
35 | QVKLVESGGGLVQAGCSLRLSCAASGFIFRSYAMGWYRQAPRKERELVAVISRRGVNTHYADSVKGRFTISRDNAKNTVYLQMNSLKPEDTAVYYCAKGLSALGDYWGQGTQVTVSS | high polyreactivity
36 | QVQLVESGGGLVQAGGSLRLSCAASGSTFAYYTMGWYRQAPGKERELVAAITWSGGRTFYADSVKGRFTISRDNAKNTVYLQMNSLKPEDTAVYYCNTDDSHRPPRTPDDYNYWGQGTQVTVSS | high polyreactivity
37 | QVQLVESGGGLVQAGGCLRLSCAASGRILYYYAMGWYRQAPGKERELVAAINSSGGSTYYADSVKGRFTISRDNAKNTVYLQMNSLKPEDTAVFYCAALRGNVLWYPPSYFRYDYWGQGTQVTVSS | high polyreactivity
38 | QVQLVESGGGLVQAGGSLRLSCAASGRTFYFYVMGWYRQAPGKERELVASITSGGSTNYADSVKGRFTISRDNAKNTVYLQMNSLKPEDTAVYYCAAALPASTSGTQPYDYWGQGTQVTVSS | low polyreactivity
39 | QVQLVESGGGLVQAGGSLRLSCAGSGFTFSSYTIGWYRQAPGKEREFVASISSGGSTNYADSVKGRFTISRDNAKNTVYLQMNSLKPEDTAVYYCAAGTTGITFFDVGSGYDYWGQGTQVTVSS | low polyreactivity
40 | QVQLVESRGGLVQAGGSLRLSCAASGLIFASYAMGWNRQAPGKERELVAAISWSGGSTYYADSVKGRFTISRDNAKNTVYLQMNSLKPEDTAVYYCAAKRYAYGSLDYWGQGTQLTVSS | high polyreactivity
41 | QVQLVESGGGLVQAGGSLRLSCAASGRIFSIYAMGSYRQAPGKERELVAAISFRGTSTYADSVKGRFTISRDNAKNTVYLQMNSLKPEDTAVYYCAVTGFDFLWPSLGGELDYWGQGTQVTVSS | low polyreactivity
42 | QVQLVESGGGLVQAGGSLRLSCAASGRIFGYTMGWYRQAPGKERELVAAISKSGGSTYYADSVKGRFTISRDNAKNTVYLQMNSLIPEDTAVYVCNKPQRILYDYWGQGSQVTVSS | high polyreactivity
43 | QVQLVESGGGLVQAGGSLRLSCAASGSTFDPNTMGWYRQAPGKERELVAAITSSTASTYYADSVKGRFTISRDNAKNTVYLQMNSLKPEDTAVYYCAADSEQDNLRYYRWVWYYYWGQGTQVTVSS | low polyreactivity
